Literature values, collected in US20130064803A1, “BIO-REPLENISHMENT (BioRep) FOR COGNITIVE HEALTH” (Naidu LP, priority 2011, published 2013).

Details: intravenous infusion

B1: LF: 80-kD heparan- and metal-binding glycoprotein, member of the transferrin super-family (protein, UniProt P02788 20-710, looked up)
Lactotransferrin: GRRRSVQWCAVSQPEATKCFQWQRNMRKVRGPPVSCIKRDSPIQCIQAIAENRADAVTLDGGFIYEAGLAPYKLRPVAAEVYGTERQPRTHYYAVAVVKKGGSFQLNELQGLKSCHTGLRRTAGWNVPIGTLRPFLNWTGPPEPIEAAVARFFSASCVPGADKGQFPNLCRLCAGTGENKCAFSSQEPYFSYSGAFKCLRDGAGDVAFIRESTVFEDLSDEAERDEYELLCPDNTRKPVDKFKDCHLARVPSHAVVARSVNGKEDAIWNLLRQAQEKFGKDKSPKFQLFGSPSGQKDLLFKDSAIGFSRVPPRIDSGLYLGSGYFTAIQNLRKSEEEVAARRARVVWCAVGEQELRKCNQWSGLSEGSVTCSSASTTEDCIALVLKGEADAMSLDGGYVYTAGKCGLVPVLAENYKSQQSSDPDPNCVDRPVEGYLAVAVVRRSDTSLTWNSVKGKKSCHTAVDRTAGWNIPMGLLFNQTGSCKFDEYFSQSCAPGSDPRSNLCALCIGDEQGENKCVPNSNERYYGYTGAFRCLAENAGDVAFVKDVTVLQNTDGNNNEAWAKDLKLADFALLCLDGKRKPVTEARSCHLAMAPNHAVVSRMDKVERLKQVLLHQQAKFGRNGSDCPDKFCLFQSETKNLLFNDNTECLARLHGKTTYEKYLGPQYVAGITNLKKCSTSPLLEACEFLRK
  time to reach the cerebrospinal fluid: ≤ 30 min
